In US20250042949A1:

Target: recombinant human ACE2 receptor (SinoBiological) (human) (UniProt Q9BYF1)
UniProt Q9BYF1, sequence (Q9BYF1 18-740 limits assumed): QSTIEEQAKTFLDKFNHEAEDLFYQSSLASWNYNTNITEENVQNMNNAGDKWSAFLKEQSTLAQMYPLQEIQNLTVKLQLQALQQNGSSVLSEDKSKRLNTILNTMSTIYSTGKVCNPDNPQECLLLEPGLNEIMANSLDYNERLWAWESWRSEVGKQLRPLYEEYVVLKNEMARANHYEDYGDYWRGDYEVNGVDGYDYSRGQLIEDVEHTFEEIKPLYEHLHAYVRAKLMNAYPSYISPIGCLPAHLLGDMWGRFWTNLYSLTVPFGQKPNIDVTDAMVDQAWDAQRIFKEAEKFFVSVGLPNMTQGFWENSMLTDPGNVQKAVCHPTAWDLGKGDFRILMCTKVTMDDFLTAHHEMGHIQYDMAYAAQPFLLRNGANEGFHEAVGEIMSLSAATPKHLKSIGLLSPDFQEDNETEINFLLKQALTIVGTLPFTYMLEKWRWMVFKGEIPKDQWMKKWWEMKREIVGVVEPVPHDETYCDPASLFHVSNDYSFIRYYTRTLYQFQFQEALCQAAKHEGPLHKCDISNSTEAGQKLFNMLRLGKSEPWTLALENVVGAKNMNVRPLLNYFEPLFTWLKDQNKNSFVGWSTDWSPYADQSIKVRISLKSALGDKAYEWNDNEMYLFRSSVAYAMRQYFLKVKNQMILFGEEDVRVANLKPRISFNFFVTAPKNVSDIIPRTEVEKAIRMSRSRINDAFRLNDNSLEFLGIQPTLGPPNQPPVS

Substance | fold higher binding activity than the reference Wuhan RBD-C-tag [fold]
RBD-omicron B.1.1.529 (RBD-C-tag) (other; other documents disagree on this pair) | 4
RBD-omicron BA.5 (RBD-C-tag) (other; other documents disagree on this pair) | 8
